We go through one molecule from publication PMC2699393 (EMBO Reports, 2009).

This experiment deals with T1, MBP–TIP150 (maltose-binding protein–tracking protein 150) (human, UniProt Q5JR59 1-1369).
T1 sequence (looked up): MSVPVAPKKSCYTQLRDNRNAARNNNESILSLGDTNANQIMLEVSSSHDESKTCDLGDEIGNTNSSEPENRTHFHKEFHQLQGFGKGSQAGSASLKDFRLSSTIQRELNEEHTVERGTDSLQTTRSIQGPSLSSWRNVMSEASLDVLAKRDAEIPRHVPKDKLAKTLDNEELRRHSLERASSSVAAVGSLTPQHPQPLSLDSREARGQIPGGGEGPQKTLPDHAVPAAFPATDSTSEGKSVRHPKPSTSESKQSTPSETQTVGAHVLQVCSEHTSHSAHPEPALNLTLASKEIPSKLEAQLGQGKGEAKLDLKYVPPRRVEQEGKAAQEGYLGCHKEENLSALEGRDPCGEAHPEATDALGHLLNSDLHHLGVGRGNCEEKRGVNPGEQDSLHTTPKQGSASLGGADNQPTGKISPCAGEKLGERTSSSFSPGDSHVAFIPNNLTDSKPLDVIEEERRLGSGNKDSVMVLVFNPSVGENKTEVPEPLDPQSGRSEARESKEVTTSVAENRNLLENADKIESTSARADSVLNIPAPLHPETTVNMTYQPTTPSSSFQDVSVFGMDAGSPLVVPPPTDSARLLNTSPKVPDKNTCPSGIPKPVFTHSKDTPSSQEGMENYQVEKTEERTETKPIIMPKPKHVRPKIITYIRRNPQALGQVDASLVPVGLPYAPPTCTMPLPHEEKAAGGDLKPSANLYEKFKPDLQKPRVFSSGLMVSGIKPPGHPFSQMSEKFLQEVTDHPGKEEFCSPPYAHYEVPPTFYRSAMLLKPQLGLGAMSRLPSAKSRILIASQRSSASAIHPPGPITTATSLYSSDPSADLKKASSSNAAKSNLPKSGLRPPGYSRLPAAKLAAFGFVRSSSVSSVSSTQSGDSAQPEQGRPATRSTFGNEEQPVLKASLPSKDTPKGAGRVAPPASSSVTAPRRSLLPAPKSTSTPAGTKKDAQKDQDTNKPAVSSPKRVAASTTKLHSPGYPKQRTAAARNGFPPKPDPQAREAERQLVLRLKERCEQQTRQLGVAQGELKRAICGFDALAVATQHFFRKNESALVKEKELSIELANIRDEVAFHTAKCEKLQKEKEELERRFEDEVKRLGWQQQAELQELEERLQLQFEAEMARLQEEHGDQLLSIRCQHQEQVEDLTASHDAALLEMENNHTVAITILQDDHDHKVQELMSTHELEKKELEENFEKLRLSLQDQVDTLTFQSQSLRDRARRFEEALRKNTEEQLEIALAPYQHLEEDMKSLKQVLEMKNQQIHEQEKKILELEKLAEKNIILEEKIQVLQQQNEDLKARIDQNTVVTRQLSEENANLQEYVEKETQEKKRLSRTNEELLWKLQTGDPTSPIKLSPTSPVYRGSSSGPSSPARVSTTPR
Description: pull-down.

B1: GST–EB1 (glutathione-S-transferase–end-binding protein 1) (natural protein, human, UniProt Q15691 1-268, looked up)
chain: MAVNVYSTSVTSDNLSRHDMLAWINESLQLNLTKIEQLCSGAAYCQFMDMLFPGSIALKKVKFQAKLEHEYIQNFKILQAGFKRMGVDKIIPVDKLVKGKFQDNFEFVQWFKKFFDANYDGKDYDPVAARQGQETAVAPSLVAPALNKPKKPLTSSSAAPQRPISTQRTAAAPKAGPGVVRKNPGVGNGDDEAAELMQQVNVLKLTVEDLEKERDFYFGKLRNIELICQENEGENDPVLQRIVDILYATDEGFVIPDEGGPQEEQEEY
For the molecule B1, the binding result was “binds”.
